PAF-AH activity data for eleven molecules are collected here from patent US5847088A, “Antibodies specific for platelet-activating factor acetylhydrolase” (ICOS Corporation, priority 1995, dated 1998).

B1: Wild type: wild type human PAF-AH expressed in E. coli, control of mutation series (protein, UniProt Q13093 22-441, looked up)
Platelet-activating factor …: FDWQYINPVAHMKSSAWVNKIQVLMAAASFGQTKIPRGNGPYSVGCTDLMFDHTNKGTFLRLYYPSQDNDRLDTLWIPNKEYFWGLSKFLGTHWLMGNILRLLFGSMTTPANWNSPLRPGEKYPLVVFSHGLGAFRTLYSAIGIDLASHGFIVAAVEHRDRSASATYYFKDQSAAEIGDKSWLYLRTLKQEEETHIRNEQVRQRAKECSQALSLILDIDHGKPVKNALDLKFDMEQLKDSIDREKIAVIGHSFGGATVIQTLSEDQRFRCGIALDAWMFPLGDEVYSRIPQPLFFINSEYFQYPANIIKMKKCYSPDKERKMITIRGSVHQNFADFTFATGKIIGHMLKLKGDIDSNVAIDLSNKASLAFLQKHLGLHKDFDQWDCLIEGDDENLIPGTNINTTNQHIMLQNSSGIEKYN
B2: S108A: PAF-AH analog with single amino acid substitution, expressed in E. coli (protein)
chain: MVPPKLHVLFCLCGCLAVVYPFDWQYINPVAHMKSSAWVNKIQVLMAAASFGQTKIPRGNGPYSVGCTDLMFDHTNKGTFLRLYYPSQDNDRLDTLWIPNKEYFWGLAKFLGTHWLMGNILRLLFGSMTTPANWNSPLRPGEKYPLVVFSHGLGAFRTLYSAIGIDLASHGFIVAAVEHRDRSASATYYFKDQSAAEIGDKSWLYLRTLKQEEETHIRNEQVRQRAKECSQALSLILDIDHGKPVKNALDLKFDMEQLKDSIDREKIAVIGHSFGGATVIQTLSEDQRFRCGIALDAWMFPLGDEVYSRIPQPLFFINSEYFQYPANIIKMKKCYSPDKERKMITIRGSVHQNFADFTFATGKIIGHMLKLKGDIDSNVAIDLSNKASLAFLQKHLGLHKDFDQWDCLIEGDDENLIPGTNINTTNQHIMLQNSSGIEKYN
B3: H351A: PAF-AH analog, His351 changed to alanine (protein)
chain: MVPPKLHVLFCLCGCLAVVYPFDWQYINPVAHMKSSAWVNKIQVLMAAASFGQTKIPRGNGPYSVGCTDLMFDHTNKGTFLRLYYPSQDNDRLDTLWIPNKEYFWGLSKFLGTHWLMGNILRLLFGSMTTPANWNSPLRPGEKYPLVVFSHGLGAFRTLYSAIGIDLASHGFIVAAVEHRDRSASATYYFKDQSAAEIGDKSWLYLRTLKQEEETHIRNEQVRQRAKECSQALSLILDIDHGKPVKNALDLKFDMEQLKDSIDREKIAVIGHSFGGATVIQTLSEDQRFRCGIALDAWMFPLGDEVYSRIPQPLFFINSEYFQYPANIIKMKKCYSPDKERKMITIRGSVAQNFADFTFATGKIIGHMLKLKGDIDSNVAIDLSNKASLAFLQKHLGLHKDFDQWDCLIEGDDENLIPGTNINTTNQHIMLQNSSGIEKYN
B4: D304A: PAF-AH analog with single amino acid substitution (protein)
chain: MVPPKLHVLFCLCGCLAVVYPFDWQYINPVAHMKSSAWVNKIQVLMAAASFGQTKIPRGNGPYSVGCTDLMFDHTNKGTFLRLYYPSQDNDRLDTLWIPNKEYFWGLSKFLGTHWLMGNILRLLFGSMTTPANWNSPLRPGEKYPLVVFSHGLGAFRTLYSAIGIDLASHGFIVAAVEHRDRSASATYYFKDQSAAEIGDKSWLYLRTLKQEEETHIRNEQVRQRAKECSQALSLILDIDHGKPVKNALDLKFDMEQLKDSIDREKIAVIGHSFGGATVIQTLSEDQRFRCGIALDAWMFPLGAEVYSRIPQPLFFINSEYFQYPANIIKMKKCYSPDKERKMITIRGSVHQNFADFTFATGKIIGHMLKLKGDIDSNVAIDLSNKASLAFLQKHLGLHKDFDQWDCLIEGDDENLIPGTNINTTNQHIMLQNSSGIEKYN
B5: D296A: PAF-AH analog, Asp296 changed to alanine (protein)
chain: MVPPKLHVLFCLCGCLAVVYPFDWQYINPVAHMKSSAWVNKIQVLMAAASFGQTKIPRGNGPYSVGCTDLMFDHTNKGTFLRLYYPSQDNDRLDTLWIPNKEYFWGLSKFLGTHWLMGNILRLLFGSMTTPANWNSPLRPGEKYPLVVFSHGLGAFRTLYSAIGIDLASHGFIVAAVEHRDRSASATYYFKDQSAAEIGDKSWLYLRTLKQEEETHIRNEQVRQRAKECSQALSLILDIDHGKPVKNALDLKFDMEQLKDSIDREKIAVIGHSFGGATVIQTLSEDQRFRCGIALAAWMFPLGDEVYSRIPQPLFFINSEYFQYPANIIKMKKCYSPDKERKMITIRGSVHQNFADFTFATGKIIGHMLKLKGDIDSNVAIDLSNKASLAFLQKHLGLHKDFDQWDCLIEGDDENLIPGTNINTTNQHIMLQNSSGIEKYN
B6: C67S: PAF-AH analog, cysteine mutated to serine (protein)
chain: MVPPKLHVLFCLCGCLAVVYPFDWQYINPVAHMKSSAWVNKIQVLMAAASFGQTKIPRGNGPYSVGSTDLMFDHTNKGTFLRLYYPSQDNDRLDTLWIPNKEYFWGLSKFLGTHWLMGNILRLLFGSMTTPANWNSPLRPGEKYPLVVFSHGLGAFRTLYSAIGIDLASHGFIVAAVEHRDRSASATYYFKDQSAAEIGDKSWLYLRTLKQEEETHIRNEQVRQRAKECSQALSLILDIDHGKPVKNALDLKFDMEQLKDSIDREKIAVIGHSFGGATVIQTLSEDQRFRCGIALDAWMFPLGDEVYSRIPQPLFFINSEYFQYPANIIKMKKCYSPDKERKMITIRGSVHQNFADFTFATGKIIGHMLKLKGDIDSNVAIDLSNKASLAFLQKHLGLHKDFDQWDCLIEGDDENLIPGTNINTTNQHIMLQNSSGIEKYN
B7: D286N: PAF-AH analog with single amino acid substitution (protein)
chain: MVPPKLHVLFCLCGCLAVVYPFDWQYINPVAHMKSSAWVNKIQVLMAAASFGQTKIPRGNGPYSVGCTDLMFDHTNKGTFLRLYYPSQDNDRLDTLWIPNKEYFWGLSKFLGTHWLMGNILRLLFGSMTTPANWNSPLRPGEKYPLVVFSHGLGAFRTLYSAIGIDLASHGFIVAAVEHRDRSASATYYFKDQSAAEIGDKSWLYLRTLKQEEETHIRNEQVRQRAKECSQALSLILDIDHGKPVKNALDLKFDMEQLKDSIDREKIAVIGHSFGGATVIQTLSENQRFRCGIALDAWMFPLGDEVYSRIPQPLFFINSEYFQYPANIIKMKKCYSPDKERKMITIRGSVHQNFADFTFATGKIIGHMLKLKGDIDSNVAIDLSNKASLAFLQKHLGLHKDFDQWDCLIEGDDENLIPGTNINTTNQHIMLQNSSGIEKYN
B8: D286A: PAF-AH analog with single amino acid substitution (protein)
chain: MVPPKLHVLFCLCGCLAVVYPFDWQYINPVAHMKSSAWVNKIQVLMAAASFGQTKIPRGNGPYSVGCTDLMFDHTNKGTFLRLYYPSQDNDRLDTLWIPNKEYFWGLSKFLGTHWLMGNILRLLFGSMTTPANWNSPLRPGEKYPLVVFSHGLGAFRTLYSAIGIDLASHGFIVAAVEHRDRSASATYYFKDQSAAEIGDKSWLYLRTLKQEEETHIRNEQVRQRAKECSQALSLILDIDHGKPVKNALDLKFDMEQLKDSIDREKIAVIGHSFGGATVIQTLSEAQRFRCGIALDAWMFPLGDEVYSRIPQPLFFINSEYFQYPANIIKMKKCYSPDKERKMITIRGSVHQNFADFTFATGKIIGHMLKLKGDIDSNVAIDLSNKASLAFLQKHLGLHKDFDQWDCLIEGDDENLIPGTNINTTNQHIMLQNSSGIEKYN
B9: D338A: PAF-AH analog with single amino acid substitution (protein)
chain: MVPPKLHVLFCLCGCLAVVYPFDWQYINPVAHMKSSAWVNKIQVLMAAASFGQTKIPRGNGPYSVGCTDLMFDHTNKGTFLRLYYPSQDNDRLDTLWIPNKEYFWGLSKFLGTHWLMGNILRLLFGSMTTPANWNSPLRPGEKYPLVVFSHGLGAFRTLYSAIGIDLASHGFIVAAVEHRDRSASATYYFKDQSAAEIGDKSWLYLRTLKQEEETHIRNEQVRQRAKECSQALSLILDIDHGKPVKNALDLKFDMEQLKDSIDREKIAVIGHSFGGATVIQTLSEDQRFRCGIALDAWMFPLGDEVYSRIPQPLFFINSEYFQYPANIIKMKKCYSPAKERKMITIRGSVHQNFADFTFATGKIIGHMLKLKGDIDSNVAIDLSNKASLAFLQKHLGLHKDFDQWDCLIEGDDENLIPGTNINTTNQHIMLQNSSGIEKYN
B10: C229S: PAF-AH analog, Cys229 mutated to serine (protein)
chain: MVPPKLHVLFCLCGCLAVVYPFDWQYINPVAHMKSSAWVNKIQVLMAAASFGQTKIPRGNGPYSVGCTDLMFDHTNKGTFLRLYYPSQDNDRLDTLWIPNKEYFWGLSKFLGTHWLMGNILRLLFGSMTTPANWNSPLRPGEKYPLVVFSHGLGAFRTLYSAIGIDLASHGFIVAAVEHRDRSASATYYFKDQSAAEIGDKSWLYLRTLKQEEETHIRNEQVRQRAKESSQALSLILDIDHGKPVKNALDLKFDMEQLKDSIDREKIAVIGHSFGGATVIQTLSEDQRFRCGIALDAWMFPLGDEVYSRIPQPLFFINSEYFQYPANIIKMKKCYSPDKERKMITIRGSVHQNFADFTFATGKIIGHMLKLKGDIDSNVAIDLSNKASLAFLQKHLGLHKDFDQWDCLIEGDDENLIPGTNINTTNQHIMLQNSSGIEKYN
B11: S273A: PAF-AH analog, Ser273 changed to alanine (protein)
chain: MVPPKLHVLFCLCGCLAVVYPFDWQYINPVAHMKSSAWVNKIQVLMAAASFGQTKIPRGNGPYSVGCTDLMFDHTNKGTFLRLYYPSQDNDRLDTLWIPNKEYFWGLSKFLGTHWLMGNILRLLFGSMTTPANWNSPLRPGEKYPLVVFSHGLGAFRTLYSAIGIDLASHGFIVAAVEHRDRSASATYYFKDQSAAEIGDKSWLYLRTLKQEEETHIRNEQVRQRAKECSQALSLILDIDHGKPVKNALDLKFDMEQLKDSIDREKIAVIGHAFGGATVIQTLSEDQRFRCGIALDAWMFPLGDEVYSRIPQPLFFINSEYFQYPANIIKMKKCYSPDKERKMITIRGSVHQNFADFTFATGKIIGHMLKLKGDIDSNVAIDLSNKASLAFLQKHLGLHKDFDQWDCLIEGDDENLIPGTNINTTNQHIMLQNSSGIEKYN

A short description of the test: PAF-AH activity of PAF-AH products expressed in E. coli (hydrolysis of 3H-acetate from [acetyl-3H] PAF). In kind it is biochemical. The note with it: amino acid substitution products expressed in E. coli.
For the molecule B1, the PAF-AH activity result was “++++ (wild type PAF-AH activity of about 40-60 U/ml/OD600)”.
The result for B2 reads “++++ (wild type PAF-AH activity of about 40-60 U/ml/OD600)”; that for B3, “- (<1 U/ml/OD600 activity)”.
On to B4, for which the PAF-AH activity entry is listed as “++++ (wild type PAF-AH activity of about 40-60 U/ml/OD600)”.
To B5 belongs “- (<1 U/ml/OD600 activity)”; to B6, “+++ (about 20-40 U/ml/OD600 activity)”.
To B7 belongs “++ (about 10-20 U/ml/OD600 activity)”; to B8, “- (<1 U/ml/OD600 activity)”; to B9, “++++ (wild type PAF-AH activity of about 40-60 U/ml/OD600)”.
In the case of B10, the PAF-AH activity entry is given as “+ (1-10 U/ml/OD600 activity)”.
In the case of B11, the PAF-AH activity result is “- (<1 U/ml/OD600 activity)”.
